Test results as given in US20240293561A1, “BRAIN PERMEABLE MULTIFUNCTIONAL SYSTEM AND USES THEREOF” (NANOCARRY THERAPEUTICS LTD., priority 2021, published 2024).

Assay: Delivery of cisPt&IgG1&Ins-GNPs into mice brain, Au and Pt measured by ICP-OES
Type: in vivo, Male BALB/c mice
Details: 8 hours after IV injection, after perfusion
Method: Male BALB/c mice were divided into four treatment groups: • Group 1: Anti-IgG1 & insulin-conjugated GNPs (IgG1&Ins-GNPs; n=2) • Group 2: Cisplatin & insulin-conjugated GNPs (CisPt&Ins-GNPs; n=2) • Group 3: Multifuctional GNPs (cisPt&IgG1&Ins-GNPs; n=2) • Group 4: Free cisplatin (n=2)
Mice were injected intravenously with IgG1&Ins-GNPs (200 μl, 25 mg/ml), cisPt&Ins-GNPs (200 μl of 25 mg/ml), cisPt&IgG1&Ins-GNPs (200 μl of 25 mg/ml), or with equivalent amounts of free cisplatin. Eight hours post injection, mice underwent perfusion to remove all the particles residing within the blood vessels. Then, mice brains were extracted and analyzed using ICP-OES to measure the amounts of Au and Pt that penetrated into the brain (FIGS. 6A and 6B, respectively).

With “cisPt&Ins-GNPs: GNPs conjugated with insulin and cisplatin; control particle” the “amount of Pt within the brain compared with equivalent dose of free cisplatin” value was “significantly higher”.
